# Data: the nanobody polyreactivity screen of Harvey et al. (2022)
# Experiment: yeast display, Sf9 membrane polyspecificity reagent, FACS + sequencing; frameworks hold sequencing errors
# Method in brief: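 A synthetic nanobody library was expressed on Saccharomyces cerevisiae BJ5465 by galactose induction for 36–48 hours. The library was stained for 1 hour at 4 °C with 10% biotinylated, detergent-solubilized Sf9 membrane reagent and enriched with streptavidin microbeads before FACS. Low and high (top ~1%) gates were set on anti-HA fluorescence for expression and streptavidin fluorescence for reagent binding, and each polyreactivity label reflects the gate of origin.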
row,Sequence,polyreactivity (PSR sort gate)
1,QVQLVESGGGLVQAGGSLRLSCAASGLTFGGNAMGWYRQAPGKERELVAGISSSGNTNYADSVKGRFTISRDNAKNTVYLQMNSLKPEDTAVYYCAADENITYPVYDMYYWGQGTQVTVSS,low polyreactivity
2,QVQLVESGGGLVQAGGSLRLSCAASGLTFGGYTMGWYRQAPGKERELVAAITSGGSTYYADSVKGRFTISRDNAKNTVYLQMNSLKPEDTAVYYCAARVRGWPVSKFGYWGQGTQVTVSS,high polyreactivity
3,QVQLVESGGGLVQAGGSLRLSCAASGLTFGHYDMGWYRQAPGKERELVAAITWSGGSTYYADSVKGRFTISRDNAKNTVYLQMNSLKPEDTAVYYCNADQPILYYSYRGVGYDYWGQGTQVTVSS,high polyreactivity
4,QVQLVESGGGLVQAGGSLRLSCAASGLTFGNYAMGWYRQTPGKERELVAAISKRGGTTYYADSVKGRFTISRDTAKNTVYLQMNSLKPEDTAVYYCSARDYSHPTDDNYWGPGTQVTVSS,high polyreactivity
5,QVQLVESGGGLVQAGGSLRLSCAASGLTFGPNALGWYRQAPGQERELVAAITTGGGTNYADSVKGRFTISRDNAKNTVYLQMNSLKPEDTAVYYCAADALDSPDGYDYCGQGTQVTVSS,low polyreactivity
6,QVQLVESGGGLVQAGGSLRLSCAASGLTFGRNAMGWYRQAPGKERELVAAISRSGGRTSYADSVKGRFTISRDNAKNTVYLHMNSLKPEDTAVYYCAARSPIYRTTYYYWGQGTQVTVSS,high polyreactivity
7,QVQLVESGGGLVQAGGSLRLSCAASGLTFGRNAMGWYRQAPGKERELVAAITFNGGSTYYADSVKGRFTISRDNAKNTVYIQMNSLKPEDTAVYYCAAPYYVYWTYPYRVLSYYYWGQGTQVTVSS,high polyreactivity
8,QVQLVESGGGLVQAGGSLRLSCAASGLTFGRNAMGWYRQSPGKERELVAAITFNGGSTYYADSVKGRFTISRDNAKNTVYFQMNSLKPEDTAVYYCAARLWRRSRFDYWGLGTQVTVSS,high polyreactivity
9,QVQLVESGGGLVQAGGSLRLSCAASGLTFGRNVMGWYRQAPGKERELVAAISWRGDSTYYADSVKGRFTISRDNAKNTGYLQMNSLKPEDTAVYYCAVRYYRGSVASGSDYWGQGTQVTVSS,high polyreactivity
10,QVQLVESGGGLVQAGGSLRLSCAASGLTFGRYAMGWYRQAPGKERELVAAITRSGGRTYYADSVKGRFTISRDNAKNTVYLQMNSLKPEDTAVYYCNKLSHLGAPGDPDDYWGQGTQVTVSS,high polyreactivity
11,QVQLVESGGGLVQAGGSLRLSCAASGLTFGTNAMGWYRQAPGKERELVAAISTSSGSTYYADSVKGRFTISRDNAKKTVYLQMNSLKQEDTAVYYCAAVTVTKLSYYRYYYWGQGTQVTVSS,low polyreactivity
12,QVQLVESGGGLVQAGGSLRLSCAASGLTFGTNSMGWYRQAPGKEMELVAAINRGGGSTYYADSVKGRVTISRDNAKNTVYLQMNSLKPEDTAVYYCAKSYSGSRTSDYWGQGTQVTVSS,high polyreactivity
13,QVQLVESGGGLVQAGGSLRLSCAASGLTFGTYAMGWYRQAPGKERELVAAISTSGVRTYYADSVKGRFTISRDNAKNTVYLQMNSLKPEDTAVYYCAARYNRAYSRDYWGQGTQVTVSS,high polyreactivity
14,QVQLVESGGGLVQAGGSLRLSCAASGLTFGVYAMGWYRQAPGQERELVAASTWGDGSTYYADSVKGRFTISRDNAKNTGYLQMNSLKPEDTAVYYCNAVTRRHKYYYWGQGTQVTVSS,high polyreactivity
15,QVQLVESGGGLVQAGGSLRLSCAASGLTFGYYAMGWYRQAPGKERELVAAITGGGGSTYYADSVKGRFTISRDNAKNTVYLQMNSLKPEDTAVYYCAKAVYFRRKGHWYQMEYWGQGTQVTVSS,low polyreactivity
16,QVQLVESGGGLVQAGGSLRLSCAASGLTFGYYAMGWYRQAPGKVRELVAAISRGSSTYYADSVKGRFTISRDNAKNTVYLQMNSLIPEDTAVYYCNALFSYGYWRVRYIVTQYDYWGQGTQVTVSS,high polyreactivity
17,QVQLVESGGGLVQAGGSLRLSCAASGLTFGYYAMVWYRQAPGKERELVAAINRSGNTNYADSVKGRFTISRDNAKNTVYLQMNCLKPEDTAVYYCAKRIWSILSPYKSSYGYDYWGQGSQVTVSS,low polyreactivity
18,QVQLVESGGGLVQAGGSLRLSCAASGLTFHPYDMGWYRQAPGKERELVAAISSRGTSTYYADSVKGRFTISRDNAKNTVYLQMNSLKPEDTAVYYCAARHGPRAEAMYYWGQGSQVTVSS,high polyreactivity
19,QVQLVESGGGLVQAGGSLRLSCAASGLTFHRYAMGWYRQAPGKERELVAANNYSGGRTYYADSVKGRFTISRDNAKNTVYLQMNSLKPEDTAVYYCAAPRASGYYWGQGTQVTVSS,high polyreactivity
20,QVQLVESGGGLVQAGGSLRLSCAASGLTFHTNTMGWYRQAPGKERELVAAITWRDDSTYYADSVKGRFTISRDYAMNTVYLQMNSLKPEDTAVFYCAARGGAYLWYHYDYWGQGTQVTVSS,low polyreactivity
21,QVQLVESGGGLVQAGGSLRLSCAASGLTFHYYGMGWYRQAPGKERELVAAISSGGSTYYADSVKGRFTISRDNAKNTVYLQMNSLKPEDTAVYYCAASLAYWYRGHYDYWGQGTQVTVSS,low polyreactivity
22,QVQLVESGGGLVQAGGSLRLSCAASGLTFIKYAMGWYRQAPGKEREFVADISKRGGTTYYADSVKGRFTISRDNAKNTVYLQMNSLKPEDTAFYYCAARQYLNVYYRYDYWGQGTQVTVSS,high polyreactivity
23,QVQLVESGGGLVQAGGSLRLSCAASGLTFIPNAMGWDRQAPGKERELVAAISGTGGSTYYADSVKGRFTISRDNAKNTVYLQMNSLKPEDTAVYYCAARRRYKSGYWGQGTQVTVSS,high polyreactivity
24,QVQLVESGGGLVQAGGSLRLSCAASGLTFIRYTRGWYRQAPGKDRELVAAINWSGDSTYYADSVKGRFTISLDNAKITVYLQMNSLKPEDTAVYYFNARRPRFRYDYWGQGTQVTVSW,high polyreactivity
25,QVQLVESGGGLVQAGGSLRLSCAASGLTFIYYAMGWYRQAPGKERELVAAISVSGGSTYYADSVKGRFTISRDNAKNTVYLQMNSLKQEDTAVYYCAADWFVHKPRYQYSFDYWGQGTQVTVSS,low polyreactivity
26,QVQLVESGGGLVQAGGSLRLSCAASGLTFKFNAMGWYRQAPGKERELVAAISFGGDDTYYADSVKGRFTISRDNAKNTVYLQMNSLKPEDTAVYYCAAEYDTWGYSGRDYWGQGTQVTVSS,low polyreactivity
27,QVQLVESGGGLVQAGGSLRLSCAASGLTFKSYAMGWYRQAPGKERELVAVISSSGGRTYYADSVKGRFTISRDNAKNTVYLQMNSLKPEDTAVYYCAADGSYGKWGGHAMYYWGQGTQVTVSS,high polyreactivity
28,QVQLVESGGGLVQAGGSLRLSCAASGLTFKSYAMGWYRQAPVKERELVAGISWSGDSTYYADSVKGRFTISRDNAKNTVYLQMNSLKPEDTAVYYCAAEYSYEYDYWGQGTQVTVSS,high polyreactivity
29,QVQLVESGGGLVQAGGSLRLSCAASGLTFKYYAMGWYRQAPGKERELVAAITATGGLTYYADSEKGRFTISRDNAKKTVYLQMNSLKPEDTAVYYCNARQHQTYYFYKHDYWGQGTQVTVSS,high polyreactivity
30,QVQLVESGGGLVQAGGSLRLSCAASGLTFKYYAMGWYRQATGKERELVARISRGGNTNYADSVKGRFTISRDNAKNTVYLQMNSLKPEDTAVYYCAATVRVYDYWGQGTQVTVSS,high polyreactivity
